B1: chicken N-cadherin-Fc fusion protein with the mutation D134A, dimeric (Fc fusion, UniProt P10288 165-728, looked up)
chain: DWVIPPINLPENSRGPFPQELVRIRSDRDKSLSLRYSVTGPGADQPPTGIFIINPISGQLSVTKPLDREQIASFHLRAHAVDVNGNQVENPIDIVINVIDMNDNRPEFLHQVWNGTVPEGSKPGTYVMTVTAIAADDPNAQNGMLRYRILSQAPSSPSPNMFTINNETGDIITVAAGLDREKVQQYTLIIQATDMEGNPTYGLSNTATAVITVTDVNDNPPEFTAMTFYGEVPENRVDVIVANLTVTDKDQPHTPAWNARYQMTGGDPTGQFTILTDPNSNDGLVTVVKPIDFETNRMFVLTVAAENQVPLAKGIQHPPQSTATVSITVIDVNESPYFVPNPKLVRQEEGLLAGSMLTTFTARDPDRYMQQTSLRYSKLSDPANWLKIDPVNGQITTTAVLDRESIYVQNNMYNATFLASDNGIPPMSGTGTLQIYLLDINDNAPQVNPKEATTCETLQPNAINITAVDPDIDPNAGPFAFELPDSPPSIKRNWTIVRISGDHAQLSLRIRFLEAGIYDVPIVITDSGNPHASSTSVLKVKVCQCDINGDCTDVDRIVGAGLGT
notes: extracellular domain; also called D134A mutant; N-cadherin Fc mutant D134A; not shown: hinge region, CH2 and CH3 domains of human IgG1 heavy chain (vector pIgSig)
B2: wild type chicken N-cadherin-Fc fusion protein, dimeric (linked by disulphide bonds at the Ig hinge region) (Fc fusion, UniProt P10288 165-729, looked up)
chain: DWVIPPINLPENSRGPFPQELVRIRSDRDKSLSLRYSVTGPGADQPPTGIFIINPISGQLSVTKPLDREQIASFHLRAHAVDVNGNQVENPIDIVINVIDMNDNRPEFLHQVWNGTVPEGSKPGTYVMTVTAIDADDPNAQNGMLRYRILSQAPSSPSPNMFTINNETGDIITVAAGLDREKVQQYTLIIQATDMEGNPTYGLSNTATAVITVTDVNDNPPEFTAMTFYGEVPENRVDVIVANLTVTDKDQPHTPAWNARYQMTGGDPTGQFTILTDPNSNDGLVTVVKPIDFETNRMFVLTVAAENQVPLAKGIQHPPQSTATVSITVIDVNESPYFVPNPKLVRQEEGLLAGSMLTTFTARDPDRYMQQTSLRYSKLSDPANWLKIDPVNGQITTTAVLDRESIYVQNNMYNATFLASDNGIPPMSGTGTLQIYLLDINDNAPQVNPKEATTCETLQPNAINITAVDPDIDPNAGPFAFELPDSPPSIKRNWTIVRISGDHAQLSLRIRFLEAGIYDVPIVITDSGNPHASSTSVLKVKVCQCDINGDCTDVDRIVGAGLGTG
notes: extracellular domain; also called dimeric N-cadherin-Fc; wild type N-cadherin; not shown: hinge region, CH2 and CH3 domains of human IgG1 heavy chain (vector pIgSig)

Experiments:
[1] = target: T1, full length chicken N-cadherin with the mutation E89A expressed on K562 cells (chicken, UniProt P10288 165-912, E89A); assay: adhesion of K562 transfectants to coated N-cadherin Fc
T1 construct: whole, on cells; also called cells expressing the E89A mutation; K562 E89A
T1 sequence (looked up): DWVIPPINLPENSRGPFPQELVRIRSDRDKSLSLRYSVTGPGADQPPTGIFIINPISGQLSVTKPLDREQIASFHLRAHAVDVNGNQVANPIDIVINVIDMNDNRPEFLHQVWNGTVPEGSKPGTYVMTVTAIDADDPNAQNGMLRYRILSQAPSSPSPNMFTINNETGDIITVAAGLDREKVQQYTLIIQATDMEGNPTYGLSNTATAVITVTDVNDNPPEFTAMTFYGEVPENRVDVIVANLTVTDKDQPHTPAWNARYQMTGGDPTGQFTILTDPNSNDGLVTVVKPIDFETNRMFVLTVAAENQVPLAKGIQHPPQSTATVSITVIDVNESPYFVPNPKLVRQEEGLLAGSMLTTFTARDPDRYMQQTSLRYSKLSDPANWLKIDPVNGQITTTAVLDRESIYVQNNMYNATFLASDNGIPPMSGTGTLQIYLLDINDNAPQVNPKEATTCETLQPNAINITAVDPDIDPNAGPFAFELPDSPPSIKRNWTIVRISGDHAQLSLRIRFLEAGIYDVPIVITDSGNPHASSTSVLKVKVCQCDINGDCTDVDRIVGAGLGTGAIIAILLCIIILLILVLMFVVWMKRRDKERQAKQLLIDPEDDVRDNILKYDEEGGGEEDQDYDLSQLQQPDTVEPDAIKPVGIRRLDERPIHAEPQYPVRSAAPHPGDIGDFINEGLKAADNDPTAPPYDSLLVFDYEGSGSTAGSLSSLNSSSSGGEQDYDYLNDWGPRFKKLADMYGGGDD
How it was run: (§1)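 K562 (or L) cells transfected with wild-type or mutant N-cadherin settled 45 min at 37 °C onto N-cadherin Fc coated at 1 µg/ml. After non-adherent cells were washed off, bound cells were quantified by acid phosphatase activity. Values are % cells adhering ± SEM, quadruplicate.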

[2] = target: T2, full length chicken N-cadherin with the N-terminus extended by two glycine residues (GG) expressed on K562 … (chicken, UniProt P10288 165-912); assay: as above
T2 construct: whole, on cells; also called cells expressing the GG N-terminal extension mutant; K562 GG
T2 sequence: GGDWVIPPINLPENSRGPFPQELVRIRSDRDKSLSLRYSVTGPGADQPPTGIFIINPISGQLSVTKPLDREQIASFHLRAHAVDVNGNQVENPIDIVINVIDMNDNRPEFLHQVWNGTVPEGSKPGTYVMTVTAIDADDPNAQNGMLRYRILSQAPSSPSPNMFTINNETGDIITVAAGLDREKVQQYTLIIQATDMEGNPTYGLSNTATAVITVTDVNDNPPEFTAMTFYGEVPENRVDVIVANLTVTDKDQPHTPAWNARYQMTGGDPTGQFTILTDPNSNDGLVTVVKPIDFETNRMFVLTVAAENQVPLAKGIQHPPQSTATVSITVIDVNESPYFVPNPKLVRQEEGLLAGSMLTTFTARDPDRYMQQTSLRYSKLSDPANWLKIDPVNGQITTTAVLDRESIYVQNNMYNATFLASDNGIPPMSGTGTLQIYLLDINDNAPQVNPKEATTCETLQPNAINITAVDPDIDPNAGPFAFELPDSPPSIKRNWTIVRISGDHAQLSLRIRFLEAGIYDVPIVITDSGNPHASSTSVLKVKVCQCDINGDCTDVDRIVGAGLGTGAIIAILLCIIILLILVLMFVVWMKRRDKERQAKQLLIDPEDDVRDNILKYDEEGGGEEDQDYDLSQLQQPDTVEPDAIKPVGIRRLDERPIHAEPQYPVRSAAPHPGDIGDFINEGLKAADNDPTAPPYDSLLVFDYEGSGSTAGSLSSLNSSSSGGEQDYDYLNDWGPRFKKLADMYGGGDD
How it was run: as §1

[3] = target: T3, mouse N-cadherin on L cells after removal of the prodomain with trypsin (mouse, UniProt P15116 160-906); assay: adhesion of trypsin-treated L cell transfectants to coated N-cadherin Fc
T3 construct: whole, on cells; Removal of the prodomain was almost complete by western blot; also called L cells after treatment; trypsin-treated L cell transfectants
T3 sequence (looked up): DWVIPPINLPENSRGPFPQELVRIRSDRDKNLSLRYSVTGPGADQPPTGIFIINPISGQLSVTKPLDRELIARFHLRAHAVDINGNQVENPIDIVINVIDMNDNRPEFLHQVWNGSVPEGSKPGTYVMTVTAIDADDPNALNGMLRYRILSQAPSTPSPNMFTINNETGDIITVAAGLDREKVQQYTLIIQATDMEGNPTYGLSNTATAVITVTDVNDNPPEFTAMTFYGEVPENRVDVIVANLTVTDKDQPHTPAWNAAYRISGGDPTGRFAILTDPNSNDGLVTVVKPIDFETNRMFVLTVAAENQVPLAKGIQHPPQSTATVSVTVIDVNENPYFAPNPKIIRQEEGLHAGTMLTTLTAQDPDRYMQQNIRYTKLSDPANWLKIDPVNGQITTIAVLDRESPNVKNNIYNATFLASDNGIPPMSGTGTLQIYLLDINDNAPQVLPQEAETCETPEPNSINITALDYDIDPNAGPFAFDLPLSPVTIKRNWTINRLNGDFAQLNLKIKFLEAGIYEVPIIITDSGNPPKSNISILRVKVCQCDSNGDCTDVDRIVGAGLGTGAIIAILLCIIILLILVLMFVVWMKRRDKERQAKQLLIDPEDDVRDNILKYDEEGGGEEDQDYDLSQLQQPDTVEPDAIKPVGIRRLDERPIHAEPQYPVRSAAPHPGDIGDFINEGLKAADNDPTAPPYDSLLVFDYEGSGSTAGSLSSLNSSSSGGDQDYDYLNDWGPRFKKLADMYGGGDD
Protocol: Adhesion tests were conducted substantially as described in Example 1. Briefly, K562 Cells or L cells transfected with wild type or mutant N-cadherin were allowed to settle for 45 minutes at 37° C. onto N-cadherin Fc fusion proteins coated at 1 μg/ml to a 96 well plate. Non-adherent cells were then washed off and residual adherent cells were quantitated by measuring acid phosphatase activity. Assays were conducted in quadruplicate and results are expressed as % cells adhering +/−SEM.
L cells expressing mouse N-cadherin with an uncleaved prodomain (see Koch et al., 2004) were obtained from Dr Weisong Shan (Montreal Neurological Institute). The normal furin cleavage site, RQKR, had been replaced with a Factor Xa site, IEGR, to give the correct N-terminus after digestion. […] L cells suspended in HBSS containing 0.1% BSA were treated with 0.01% trypsin (Sigma, Type XI) in the presence of 2 mM Ca²⁺ for 10 minutes at 37° C. and the digestion was then quenched with soyabean trypsin inhibitor, 0.5 mg per ml (Sigma, Type I-S). Cells were then washed and tested for adhesion to N-cadherin Fc-fusion protein. To check for complete removal of the prodomain, the cells were lysed in SDS sample buffer and the cadherin analysed by SDS PAGE under reducing conditions on a 4-12% gradient gel. […]

Row | Binder | binding result [1] | binding result [2] | binding result [3]
1 | B1 | no binding (tested: Fc fusion protein coated at 1 µg/ml) | no binding (tested: Fc fusion protein coated at 1 µg/ml) | 
2 | B2 |  |  | binds
